Bridge positions count the residues as written; N and C are the ends. Square brackets hold non-standard residues; d marks the D form. Primed or numbered codes have the meaning given here. Ends that are not written are not given here. 2Nal = N[C@@H](Cc1ccc2ccccc2c1)C(=O)O; BMB″ = not defined here

This is an account of results in US20190282654A1.

For test [1], the target named is NEMO (endogenous, in NF-κB reporter (Luc)-HEK293 cells), Q9Y6K9. Briefly: cell-based or functional assay.
For test [2], the target named is T1, GST-NEMO(1-196), Q9Y6K9.
T1 chain: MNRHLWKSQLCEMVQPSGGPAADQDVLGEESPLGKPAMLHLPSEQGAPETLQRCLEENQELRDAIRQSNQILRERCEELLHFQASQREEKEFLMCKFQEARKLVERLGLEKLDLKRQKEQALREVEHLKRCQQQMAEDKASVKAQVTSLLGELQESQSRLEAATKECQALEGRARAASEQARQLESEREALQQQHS
Briefly: HTRF competition: GST-NEMO (30 nM) + biotin-IKKβKK/RR(701-745) (50 nM), 5 mM TCEP. (In TR-FRET formats the signal depends on donor and acceptor labels being close together.)

B1: bicyclic peptide 4 (peptide)
peptide: RRRR[2Nal]FCALDWSWLQC
modifications: linker 7-16 via BMB″ (inferred); not fully specified (bridges); reading uncertain
Broadly, the IC50 is the concentration that inhibits the measured activity by half. Molecule B1 came in with a TNFα-induced luciferase activity, NF-κB reporter (Luc)-HEK293 cells, IC50 in test [1] of 20 µM. For the same molecule, the concentration for half-maximal inhibition (IC50) in test [2] came out at 3.5 µM.
